The values that follow come from article doi:10.1101/2025.11.24.690153.

Like-named read-outs stand apart in the source and are kept apart here.

In data set [1] the target is T1, GtComGD (Geobacillus thermodenitrificans, UniProt A0ABY9Q9R4 29-145).
T1 sequence: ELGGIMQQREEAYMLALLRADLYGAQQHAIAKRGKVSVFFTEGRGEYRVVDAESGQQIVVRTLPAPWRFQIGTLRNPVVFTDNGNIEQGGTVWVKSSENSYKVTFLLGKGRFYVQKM
The data set can be described thus: EMSA.

The target of data set [2] is T1, GtComGD. The data set can be described thus: BLI.
For data set [3], the target named is Geobacillus thermodenitrificans His-MBP-ComGC (Geobacillus thermodenitrificans). Put plainly: SEC.
The target is the same in data set [4]. The data set can be described thus: SEC. The source holds these as a separate data set.
For data set [5], the target named is Geobacillus thermodenitrificans His-MBP-ComGD (Geobacillus thermodenitrificans). The data set can be described thus: SEC.
Data set [6] has the same target. Put plainly: SEC. The source holds these as a separate data set.
Data set [7] has the same target. The data set can be described thus: SEC. The source holds these as a separate data set.
Data set [8] concerns the target T2, BsComGC (Bacillus subtilis PY79, UniProt P25955 28-98).
T2 sequence: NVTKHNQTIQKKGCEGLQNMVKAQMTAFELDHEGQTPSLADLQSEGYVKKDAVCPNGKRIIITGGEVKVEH
Put plainly: EMSA.

Data set [9] deals with T2, BsComGC. Put plainly: pull-down.

In the data set with GtComGD [1], 40 bp dsDNA (EMSA) came in with a Kd of 20 µM. With 2000 bp dsDNA (BLI), the Kd in the data set with GtComGD [2] was 96 µM.

For the molecule “Geobacillus thermodenitrificans His-MBP-ComGC (domain or fragment)”, the stoichiometry N in data set [3] and in data set [4] was 2 throughout. Consider “Geobacillus thermodenitrificans His-MBP-ComGD (domain or fragment)”, for which the stoichiometry N in [5], in data set [6] and in data set [7] was 2 in each case. As to TTTTTTTTTTTTTTTTTTTTTTCCCACAACAAGCCACCCG (ssDNA) [unstructured ssDNA (BLI, Fig. S3A)], the Kd with GtComGD [2] turned out to be 53 µM. For TTTTTTTTTTTTTTTTTTTTTTCCCACAACAAGCCACCCG (ssDNA) [40 nt ssDNA (EMSA, Fig. S3A)], the Kd with GtComGD [1] is ~13.6 µM; in the data set with BsComGC [8] it was ~100 µM. Consider AAAAAAAAAAAA (ssDNA) [12 nt polyA ssDNA], for which the binding result in the data set with BsComGC [9] is “binds”.
